From US20240325490A1 (RESEARCH AND BUSINESS FOUNDATION SUNGKYUNKWAN UNIVERSITY, published 2024)
Blank lines part the entries; values can stand above or below the binder they belong to.

Tests used:
[1] = target: T1, P62 (endogenous, mouse brain) (mouse, UniProt Q64337 2-442, limits assumed); assay: protein ligation assay (PLA) in situ, mouse brain CA1 after MCAO
T1 construct: Endogenous protein in mouse brain tissue

[2] = target: T1, P62 (endogenous, mouse brain); assay: immunoprecipitation / immunoblot from AAV2-injected mouse brains after MCAO (FIGS. 6F and 6G)

binding result [1]: binds
B1: EBP1 (endogenous, mouse brain) (other, UniProt P50580 2-394, looked up)
chain: SGEDEQQEQTIAEDLVVTKYKMGGDIANRVLRSLVEASSSGVSVLSLCEKGDAMIMEETGKIFKKEKEMKKGIAFPTSISVNNCVCHFSPLKSDQDYILKEGDLVKIDLGVHVDGFIANVAHTFVIGVAQGTQVTGRKADVIKAAHLCAEAALRLVKPGNQNTQVTEAWNKVAHSFNCTPIEGMLSHQLKQHVIDGEKTIIQNPTDQQKKDHEKAEFEVHEVYAVDVLVSSGEGKAKDAGQRTTIYKRDPSKQYGLKMKTSRAFFSEVERRFDAMPFTLRAFEDEKKARMGVVECAKHELLQPFNVLYEKEGEFVAQFKFTVLLMPNGPMRITSGPFEPDLYKSEMEVQDAELKALLQSSASRKTQKKKKKKASKTVENATSGETLEENGAGD
notes: Endogenous protein detected in situ by PLA; also called mouse Ebp1

binding result [2]: no binding
B2: GFP-EBP1-K376A expressed from AAV2 in mouse brain (other, UniProt Q9UQ80 1-394, looked up)
chain: MSGEDEQQEQTIAEDLVVTKYKMGGDIANRVLRSLVEASSSGVSVLSLCEKGDAMIMEETGKIFKKEKEMKKGIAFPTSISVNNCVCHFSPLKSDQDYILKEGDLVKIDLGVHVDGFIANVAHTFVVDVAQGTQVTGRKADVIKAAHLCAEAALRLVKPGNQNTQVTEAWNKVAHSFNCTPIEGMLSHQLKQHVIDGEKTIIQNPTDQQKKDHEKAEFEVHEVYAVDVLVSSGEGKAKDAGQRTTIYKRDPSKQYGLKMKTSRAFFSEVERRFDAMPFTLRAFEDEKKARMGVVECAKHELLQPFNVLYEKEGEFVAQFKFTVLLMPNGPMRITSGPFEPDLYKSEMEVQDAELKALLQSSASRKTQKKKKKKASATAENATSGETLEENEAGD
notes: also called AAV2-GFP-EBP1-K376A; AAV2-K376A; not shown: GFP tag
